According to article PMC6921968:

Biological target: SpyCatcher::HBsAg VLP (hepatitis B surface antigen genetically fused to SpyCatcher) (Streptococcus pyogenes | hepatitis B virus)
Test: covalent (isopeptide) coupling, SDS-PAGE with Coomassie staining and densitometry; SpyCatcher::HBsAg VLP incubated with Pfs25::SpyTag at molar ratio 1.5, 0.5 or 0.1, 3 h to overnight at room temperature, with 10x reaction buffer (40 mM Na2HPO4, 200 mM sodium citrate, pH 6.2); dialysed (100 kDa cut-off) against TBS; conjugation efficiency = % of total SpyCatcher::HBsAg coupled to Pfs25::SpyTag

Pfs25::SpyTag (Pfs25-SpyTag-Ctag)
conjugation efficiency (% of total SpyCatcher::HBsAg coupled to Pfs25::SpyTag) at molar ratio 0.1: 10% | conjugation efficiency (% of total SpyCatcher::HBsAg coupled to Pfs25::SpyTag) at molar ratio 0.5: 50% | conjugation efficiency (% of total SpyCatcher::HBsAg coupled to Pfs25::SpyTag) at molar ratio 1.5: > 90%
